Test results from the supplement of paper PMC12764529.
± gives the half width of the 95% confidence interval.

Assay: folding stability dG unfold from trypsin proteolysis; higher = more stable
Procedure, shortened: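 Unfolding free energy was derived, per protease or combined, by relating Bayesian-fitted K50 values from sequencing counts to a sequence-predicted unfolded-state K50 and a shared folded-state K50. The underlying digests exposed cysteine-free mini-proteins under 80 residues, in a PA-tagged cDNA display construct, to trypsin and chymotrypsin at 11 threefold-diluted concentrations and to a no-protease condition. A filter kept only designs with AlphaFold2 dimer inter-PAE above 15.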

Row | Sequence | folding stability dG unfold
1 | SAGGSAGGSAGKKPPVYRLVVENEDGEKYEFEFKSLEDLKAALESEEVRKKIKKVKIEKVSAGGSAGGSAGG [r11_1047_TrROS_Hall] | 2.11 ± 0.09 kcal/mol
2 | SAGGSAGGSAGPEIELREDSLVIRVKAKEGEVIGVPEGLEVEGVVYDPSTGELTVVVRAPSAGGSAGGSAGG [r11_942_TrMRF] | 2.31 ± 0.23 kcal/mol
3 | SAGGSAGGSAGGSSSSSITTEERPVDEDSVEKTFKFPDYYVVETLDPRTGRTSVSFIPVSAGGSAGGSAGGS [r4_99_JUSTAS] | 0.756 ± 0.021 kcal/mol
4 | SAGGSAAKIDPKNGTITIYNKKTGKKIKIKIKNLPPGAKVTIEIKNGKITIKVDGKTIEINIKEIKSAGGSA [r15_864_TrROS_Hall] | 2.1 ± 0.26 kcal/mol
5 | SAGAKAEPGPSGRLRIYLPDEPIELDVTEDGTVTLTFPNGEKVEFPVEKEKAALVLAELNALGAVVVPQSAG [r5_753_TrMRF] | -0.367 ± 0.19 kcal/mol
6 | SAGGSAGGSEFYVIKIKNPETKKEIELVFEGSEEEIKAAIEELAKKPNLKIEIKKIKVSKEELSAGGSAGGS [r12_92_TrROS_Hall] | 1.43 ± 0.085 kcal/mol
7 | SAGNPDYIPIPFRVWIMRRVPPGMSKEQAKKNPDMYVMVPIPVKFYIDPDTGRIRVENPDGKTIEFPLPSAG [r5_701_TrROS] | 2.11 ± 0.03 kcal/mol
8 | SAGGSAGGSGGMMPVTLTITPVNPPGASTSSTTIPVNFTSPEEAAAAKEKIAAELPSNATVTGSAGGSAGGS [r20_211_JUSTAS] | 0.442 ± 0.0095 kcal/mol
9 | SAGGSASMVEEEVTLQKKVKSEEEALKFAEEVKESNPHVKTVEVSLEKLPDGSILVNVTIKRILKPSAGGSA [r15_726_JUSTAS] | 4.43 ± 0.4 kcal/mol
10 | SAGGSAGGSADDEVVEIVDVLPLPNRPVLVVKVRGPDGQTKVYDPATGKWLTPEEAKAALSSAGGSAGGSAG [r3_206_TrMRF] | 1.09 ± 0.032 kcal/mol
11 | SAGGSAGGSAGGMLSTNVTRTITLTYFDPNGSKPIETQTVTVTTFVEIFQEPVGNWTAASAGGSAGGSAGGS [r10_50_JUSTAS] | 0.789 ± 0.08 kcal/mol
12 | SKFKIDEIKYEPNKPYTIKVKLPDGTTIEIKYDPNKPNEVKIILTHPDGSKKEFTLPYNYPININLKVNPSA [r9_875_TrMRF] | 1.59 ± 0.031 kcal/mol
13 | SAGGMPIKELTAEEIAALLKEKLGVDVEIEEVKVTVERDENGNYVLRIEVKFKETNETITLEIVLPKSAGGS [r16_42_TrROS_Hall] | 2.94 ± 0.093 kcal/mol
14 | SAGGSAGGSAGKKKKKKLVRVRITYKNGKKKEFVFKTKEEAEKALKEEFNIEKIEIEEIPSAGGSAGGSAGG [r17_508_TrROS_Hall] | 2.84 ± 0.1 kcal/mol
15 | SAGGSAGGSAGENKPIKVLVFLEKEDEYYEELFEFDSPEEIEEWLKKIPKDYKVKKVIVFSAGGSAGGSAGG [r17_410_TrMRF] | 3.09 ± 0.11 kcal/mol
16 | SAGGSAGGSAGGKKTITVPKGAVVRITYKNGEKKEVKAGETITIEDLPEDVKIEVVKVKKSAGGSAGGSAGG [r7_968_TrROS_Hall] | 1.73 ± 0.06 kcal/mol

Row | Sequence | folding stability dG unfold
17 | SAGGETRTFMFPFKPGMPLEEIIEELIDVLQKKGKDYPIEFKPIEPDPNGYMLFMATVTNNKITIFWSAGGS [r8_7_TrROS] | 2.22 ± 0.05 kcal/mol
18 | SYSIDTSKIEEAAAALPPNAVAELELTANVPESGFTLKLKVTITVDPAGKVTRITFTDPATGKKIATVDVGS [r1_165_JUSTAS] | 2.47 ± 0.069 kcal/mol
19 | SAGGSAKKKKKKKKKKKKKKEKKEVVIVIKAKSKEEAEKAVKKLLEELQKKYNIPLPKNVKVIILPSAGGSA [r15_496_TrROS_Hall] | 3.33 ± 0.11 kcal/mol
20 | SVDPAKEKVVLRFTVTFPVPPELGPITADELAALVREILEAFGYEIVSVTVTVEGDRVTVTVEAVFDKRGSA [r9_1134_TrMRF] | 3.76 ± 0.11 kcal/mol
21 | SAMKVYIAASSPEEIEGWIEEARKAGIDGPELIFVSPDDRVYKAEIIPNTGEVKIEPVKPIEELLKELPSAG [r14_913_TrMRF] | 1.09 ± 0.11 kcal/mol
22 | SKTIMFQFDSIEEIKDFIKEAIDDGDPDQKIRIEWYPPGGRRQEHEIESPEDIIDFLENGPYWIRVEIEPSA [r9_589_TrROS] | 1.68 ± 0.052 kcal/mol
23 | SAGGSAGGSAGGSKKKKKKKKKKVVKLTVLIEKDGELYLVEIEFDKDGKIVSISVEKLPSAGGSAGGSAGGS [r4_192_TrROS_Hall] | 2.12 ± 0.16 kcal/mol
24 | SAGGKIKKGETVKIKIEIENKNGEKKTIELEVKKEDLEKLKELIEKLKEKGFKIKKIEIKVLKKEKKSAGGS [r8_497_TrROS_Hall] | 1.02 ± 0.13 kcal/mol
25 | SAPPKTRTREIEIRFDDYYVRIKITWTKDGNLKLDIEFQGPNPVMREQIKDFLEELNPDFEITDIEVYRSAG [r14_611_TrROS] | 2.13 ± 0.14 kcal/mol
26 | SAGGGSLEKIREAGKKGYLVRIELETGERRVIPIEDLIRDPRFGPDVPLAELRVRRIELLPPDDGLPLSAGG [r13_587_TrMRF] | 1.27 ± 0.036 kcal/mol
27 | SAMVLKVEEEPFPPNAKREVKEIRKDPNSDNLFKVKIELEKSPDPSVTSAKVITIPPDGSKKVEEKVLESAG [r14_10_JUSTAS] | 0.514 ± 0.27 kcal/mol
28 | MKEYLIKIKITITDPNGKKREIEITVLVPAEELTEEQLKELLEKAKELAEKLKEKGYEVKVEVEIIPLEELS [r1_221_TrROS_Hall] | 3.83 ± 0.27 kcal/mol
29 | SMVKIYFPNAPPELVAEAIEKHPDSTVEIYFEPGKPDVFESILKDYDVEVEPFPTEDGRLLVKARVKVPGSA [r9_1138_TrMRF] | 2.11 ± 0.13 kcal/mol
30 | SAGGEMVTIRVRAPDPEKLIEALREEFPEGLTIRPFPRPTPDGYEVLIVVPAERPEELLEAVERAIGSAGGS [r16_43_TrMRF] | 2.01 ± 0.075 kcal/mol
31 | SAGGSAGGMKIKVKFTITKSDPNSDSPVPRVITKEFESLEEAEKEFNKLKNLPSGYTVEVEIVESAGGSAGG [r7_0_JUSTAS] | 3.16 ± 0.11 kcal/mol
